According to paper PMC11390915, “Histones and histone variant families in prokaryotes” (Nature Communications, 2024):

Target: the molecule itself
Assay: crystal structure; HTkC at 4.0 mg/mL in 50 mM Tris-HCl pH 7.0, 100 mM KCl, 10% glycerol; sitting drop vapor diffusion, reservoir 0.01 M trisodium citrate, 33% (w/v) PEG 6000; space group P2(1)2(1)2(1), 1.84 Å; four monomers in the asymmetric unit

B1: face-to-face (FtF) histone from Thermococcus kodakarensis (HTkC) (natural protein)
chain: MAEMLVKSKVKEFVKSVDPEMRVSPEFYDALEAEVKALVEKAIKRAQAEGRKTLYARHV
notes: Face-to-face (FtF) histone HTkC of Thermococcus kodakarensis, product of gene TK1040; synthesized gene cloned into pET30b (plasmid pRD503); The purification used heat, heparin and SEC only, so the protein is probably untagged (surmised); Oligonucleotides for cloning are in the Supplementary Information; also called FtF histone HTkC; TK1040; source: E. coli BL21(DE3)pLysS, purified (heating at 70 …)
With B1 the “stoichiometry N” value was 4.
